Literature values, collected in patent publication US20230332104A1, “ZBTB32 INHIBITORS AND USES THEREOF” (NOVARTIS AG, priority 2020, published 2023).

Test system: rodent and cynomolgus monkey TGF-β

B1: XOMA 089: fully human monoclonal antibody that specifically binds and neutralizes TGF-beta 1 and 2 ligands (antibody, V domains shown)
VH: QVQLVQSGAEVKKPGSSVKVSCKASGGTFSSYAISWVRQAPGQGLEWMGGIIPIFGTANYAQKFQGRVTITADESTSTAYMELSSLRSEDTAVYYCARGLWEVRALPSVYWGQGTLVTVSS
VL: SYELTQPPSVSVAPGQTARITCGANDIGSKSVHWYQQKAGQAPVLVVSEDIIRPSGIPERISGSNSGNTATLTISRVEAGDEADYYCQVWDRDSDQYVFGTGTKVTVLG
- cross-reactivity with rodent and cynomolgus monkey TGF-β: cross-reacts
